Source: PMC8202955, “The nonreceptor tyrosine kinase SRMS inhibits autophagy and promotes tumor growth by phosphorylating the scaffolding protein FKBP51” (PLoS Biology, 2021)

What was measured:
[1] = target: T1, SRMS (Src-related kinase lacking C-terminal regulatory tyrosine and N-terminal myristylation sites) (Homo sapiens, UniProt Q9H3Y6); experiment: peptide substrate mobility shift kinase assay with purified recombinant kinase domain ([…] SRMS, […] ATP); assay type: biochemical
T1 construct: human SRMS kinase domain (residues 221 to 486)
T1 sequence (Q9H3Y6 221-486): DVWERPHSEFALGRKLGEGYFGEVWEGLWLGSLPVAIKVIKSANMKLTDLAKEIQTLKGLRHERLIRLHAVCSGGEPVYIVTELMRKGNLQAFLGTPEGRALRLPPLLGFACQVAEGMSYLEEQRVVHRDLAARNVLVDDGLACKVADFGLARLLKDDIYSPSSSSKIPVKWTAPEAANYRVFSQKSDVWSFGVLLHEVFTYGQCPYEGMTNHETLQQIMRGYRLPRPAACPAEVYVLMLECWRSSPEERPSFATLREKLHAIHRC

[2] = phosphorylation at Y54

Row | Compound | IC50 [1] [nM] | degradation_or_half_life [2]
1 | C=CC(=O)N1CCC[C@@H](n2nc(-c3ccc(Oc4ccccc4)cc3)c3c(N)ncnc32)C1 [ibrutinib] | 33 | –
2 | FKBP51: SRMS knockout (CRISPR/Cas9) | – | decreases
3 | FKBP51: ibrutinib (SRMS inhibitor) | – | decreases
